According to US20250163129A1 (IMMUNOS THERAPEUTICS, published 2025):

Target: T1, HLA-B57(A46E/V97R).β2m IgG4 Fc fusion protein dimer associated with β2m (human; homo sapiens)
T1 construct: also called iosH2; losH2
Assay: ELISA, biotinylated LILRB2 on streptavidin plate
Description: The inventors went on to dissect the immunological properties most relevant to tumor immunity associated with HLA-B57^{(A46E/V97R)} formats, all lacking association with a peptide epitope associated with the peptide-binding groove of the HLA class I domain of the fusion protein. The affinity of interaction of LILRB2 with wildtype HLA-B57 fusion protein (dimers) lacking β2m, HLA-B57^{(A46E/V97R)} fusion protein (dimers) lacking β2m, and HLA-B57^{(A46E/V97R)} fusion protein dimers still bound to β2m was measured using the enzyme-linked immunosorbent assay (ELISA) method. Flat bottom Pierce™ Streptavidin coated high binding capacity 96 well plates (Pierce #15500) were coated with 50 μl of c-terminally biotinylated antigen molecules (LILRB2, BPS Bioscience #100335) immobilized at a final concentration of 5 μg/ml in PBS buffer. PBS and IgG isotype were used as negative controls. A serial dilution of HLA-B57, or HLA-B57^{(A46E/V97R)} lacking β2m, and HLA-B57^{(A46E/V97R)}.β2m (eight concentration points: 10, 2.5, 1, 0.25, 0.1, 0.025, 0.01, 0.0025 μg/ml) was applied (50 μl) in duplicates. An APC conjugated goat anti-human IgG antibody (Jackson Immuno Research #109-135-098) with 1:100 dilution in TBS (50 μl) was used for detection. Finally, 50 μl TBS in each well was added and a fluorescence scan was performed with APC excitation and emission wavelengths of 650 nm & 660 nm, respectively. […]

B1: LILRB2, c-terminally biotinylated (BPS Bioscience #100335) (receptor, UniProt Q8N423 22-458, looked up)
chain: QTGTIPKPTLWAEPDSVITQGSPVTLSCQGSLEAQEYRLYREKKSASWITRIRPELVKNGQFHIPSITWEHTGRYGCQYYSRARWSELSDPLVLVMTGAYPKPTLSAQPSPVVTSGGRVTLQCESQVAFGGFILCKEGEDEHPQCLNSQPHARGSSRAIFSVGPVSPNRRWSHRCYGYDLNSPYVWSSPSDLLELLVPGVSKKPSLSVQPGPVMAPGESLTLQCVSDVGYDRFVLYKEGERDLRQLPGRQPQAGLSQANFTLGPVSRSYGGQYRCYGAHNLSSECSAPSDPLDILITGQIRGTPFISVQPGPTVASGENVTLLCQSWRQFHTFLLTKAGAADAPLRLRSIHEYPKYQAEFPMSPVTSAHAGTYRCYGSLNSDPYLLSHPSEPLELVVSGPSMGSSPPPTGPISTPGPEDQPLTPTGSDPQSGLGRHL
modifications: C-terminal biotin
notes: Bought reagent immobilised on streptavidin plates
- binding result: binds
